{
  "source": "patent US8491891B2",
  "about": "“Human beta-glucuronidase mutants with elevated enzymatic activity under physiological conditions and method for identifying such” (Academia Sinica, priority 2008, dated 2013)",
  "molecules": {"B1": {"name": "Mouse β-glucuronidase: mouse beta-glucuronidase, Genbank accession no. J02836.1 (protein)", "chain": "LKGGMLFPKESPSRELKALDGLWHFRADLSNNRLQGFEQQWYRQPLRESGPVLDMPVPSSFNDITQEAALRDFIGWVWYEREAILPRRWTQDTDMRVVLRINSAHYYAVVWVNGIHVVEHEGGHLPFEADISKLVQSGPLTTCRITIAINNTLTPHTLPPGTIVYKTDTSMYPKGYFVQDTSFDFFNYAGLHRSVVLYTTPTTYIDDITVITNVEQDIGLVTYWISVQGSEHFQLEVQLLDEGGKVVAHGTGNQGQLQVPSANLWWPYLMHEHPAYMYSLEVKVTTTESVTDYYTLPIGIRTVAVTKSKFLINGKPFYFQGVNKHEDSDIRGKGFDWPLLVKDFNLLRWLGANSFRTSHYPYSEEVLQLCDRYGIVVIDECPGVGIVLPQSFGNESLRHHLEVMEELVRRDKNHPAVVMWSVANEPSSALKPAAYYFKTLITHTKALDLTRPVTFVSNAKYDADLGAPYVDVICVNSYFSWYHDYGHLEVIQPQLNSQFENWYKTHQKPIIQSEYGADAIPGIHEDPPRMFSEEYQKAVLENYHSVLDQKRKEYVVGELIWNFADFMTNQSPLRVIGNKKGIFTRQRQPKTSAFILRERYWRIANETGGHGSGPRTQCFGSRPFTFKADFSTPNITESGNPSADTKRITCFASGGFPKPRFSWLENGRELPGINTTISQDPESELYTISSQLDFNTTRNHTIKCLIKYGDAHVSEDFTWEKPPEDPPDSKNTLVLFGAGFGAVITVVVIVVIIKCFCKHRSCFRRNEASRETNNSLTFGPEEALAEQTVFL", "modifications": "left off: small tags and cut ends"}},
  "assay": "Enzymatic activity of mouse versus human β-glucuronidase at pH 7.0",
  "assay_type": "biochemical",
  "from_the_text": "Each of the cDNAs encoding human and mouse beta-glucuronidases (Genbank accession no. NM_000181, 03-SEP-2009 and Genbank accession no. J02836.1, 29-APR-1996) was fused to the juxtamembrane Ig-like extracellular domain, transmembrane domain and cytoplasmic tail of murine B7-1. See Chen et al., Cancer Gene Ther 14:187-200 (2007).",
  "data": [
    {"molecule": "B1", "values": [
      {"measurement": "Enzymatic activity compared with human β-glucuronidase", "result": "about three-fold greater"}
    ]}
  ]
}
